Reference: patent publication US10947523B2, “Biotechnological production of L-tryptophan” (Technische Universitaet Hamburg, priority 2017, dated 2021)
Where a chain is given by its changes, count along the chain named. Names may count otherwise.

Experiments:
[1] = target: T1, ScIGPs (ScTrpC without anthranilate synthase II domain) (Saccharomyces cerevisiae, UniProt P00937); experiment: Effect of anthranilate on IGPs activity; type: biochemical; details: anthranilate synthase II domain removed, FIG. 8
T1 construct: ScIGPs=ScTrpC without anthranilate synthase II domain
T1 sequence (P00937 215-484 limits assumed): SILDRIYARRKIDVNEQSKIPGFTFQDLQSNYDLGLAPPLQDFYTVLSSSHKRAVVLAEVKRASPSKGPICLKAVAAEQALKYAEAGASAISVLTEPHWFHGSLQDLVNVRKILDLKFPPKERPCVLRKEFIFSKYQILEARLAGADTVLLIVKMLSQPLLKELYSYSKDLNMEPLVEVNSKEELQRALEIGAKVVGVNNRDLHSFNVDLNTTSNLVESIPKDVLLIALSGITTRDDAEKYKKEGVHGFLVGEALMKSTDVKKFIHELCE
Excerpt: FIG. 8. Effects of anthranilate on the activities of ScTrpC and ScIGPs (ScIGPs=ScTrpC without anthranilate synthase II domain).

6His-eIGPs = target: T2, 6His-eIGPs (Escherichia coli, UniProt P00909); experiment: IGPs enzyme assay, inhibition by anthranilate; type: biochemical; details: isolated IGPs domain, N-terminal His-tag
T2 construct: made in house; host or cells: E. coli Top10
Experimental: (§3) The activity of IGPs from E. coli was measured by monitoring the formation of IGP via absorbance at 278 nm [23] with a molar extinction coefficient value of 5500 M^−1 cm^−1 [24]. Assays were performed in 50 mM HEPPS pH 7.5, 4 mM EDTA at 30° C. with 20-25 μg/mL of purified enzymes in cuvettes. To investigate the effect of anthranilate on the activity of IGPs, the activities were measured in the presence of different concentrations of anthranilate. Unless stated otherwise, the reactions were started by adding 180 μM of the substrate CdRP. […] The concentration of the synthesized CdRP in the stock solution was determined by measuring the concentrations of the product IGP with completely converted reactions.

AgTrpC = AgTrpC (Aspergillus niger, UniProt P05328); experiment: Effect of anthranilate on IGPs activity of TrpC; type: biochemical; details: FIG. 7
Sequence of AgTrpC (P05328 other isoform, or with tags, fused parts or gaps with the stated changes): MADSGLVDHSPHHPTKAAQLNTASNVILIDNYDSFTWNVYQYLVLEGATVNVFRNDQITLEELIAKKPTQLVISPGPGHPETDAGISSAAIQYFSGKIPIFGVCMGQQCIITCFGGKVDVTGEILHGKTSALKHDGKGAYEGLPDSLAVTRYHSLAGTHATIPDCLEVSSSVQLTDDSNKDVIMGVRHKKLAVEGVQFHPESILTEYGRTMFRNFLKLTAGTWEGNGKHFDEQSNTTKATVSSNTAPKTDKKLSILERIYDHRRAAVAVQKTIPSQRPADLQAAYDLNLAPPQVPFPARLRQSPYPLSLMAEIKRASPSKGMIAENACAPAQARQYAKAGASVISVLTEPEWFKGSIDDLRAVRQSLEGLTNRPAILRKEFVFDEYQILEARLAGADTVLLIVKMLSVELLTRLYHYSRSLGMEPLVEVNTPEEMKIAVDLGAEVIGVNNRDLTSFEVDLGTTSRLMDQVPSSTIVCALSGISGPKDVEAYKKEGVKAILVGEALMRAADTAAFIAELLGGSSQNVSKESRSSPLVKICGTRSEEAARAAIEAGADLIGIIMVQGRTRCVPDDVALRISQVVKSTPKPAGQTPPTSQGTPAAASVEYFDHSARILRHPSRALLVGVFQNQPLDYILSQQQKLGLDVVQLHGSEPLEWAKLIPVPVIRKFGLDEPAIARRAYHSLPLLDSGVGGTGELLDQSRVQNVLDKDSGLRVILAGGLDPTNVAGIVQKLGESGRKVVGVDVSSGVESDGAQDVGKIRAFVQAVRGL

6His-TrpC = target: T3, 6His-TrpC (Escherichia coli, UniProt P00909); experiment: IGPs enzyme assay, inhibition by anthranilate; type: biochemical
T3 construct: inserting the PCR products amplified from E. coli S028 with primers EcoRI-6H-trpC and trpC-XbaI; made in house; host or cells: E. coli Top10
Experimental: as §3
In order to figure out whether the PRAi domain has an influence on the inhibition resistance of eIGPs, the effect of anthranilate on the activity of IGPs in the form of eIGPs-PRAi (6His-TrpC) was tested.

eIGPs-6His = target: T4, eIGPs-6His (Escherichia coli, UniProt P00909); experiment: IGPs enzyme assay, inhibition by anthranilate; type: biochemical
T4 construct: made in house; host or cells: E. coli BL21
Experimental: (§1) The activity of IGPs from E. coli was measured by monitoring the formation of IGP via absorbance at 278 nm with a molar extinction coefficient value of 5500 M^−1 cm^−1 [24]. Assays were performed in 50 mM HEPPS pH 7.5, 4 mM EDTA at 30° C. with 20-25 μg/mL of purified enzymes in cuvettes. To investigate the effect of anthranilate on the activity of IGPs, the activities were measured in the presence of different concentrations of anthranilate. Unless stated otherwise, the reactions were started by adding 180 μM of the substrate CdRP. The synthesis of CdRP was performed by following the improved method reported by Kirschner et al.. The concentration of the synthesized CdRP in the stock solution was determined by measuring the concentrations of the product IGP with completely converted reactions.
To elucidate the effect of anthranilate on the enzyme activity of eIGPs, the catalytic activity of the isolated eIGPs (eIGPs-6His) was examined in the presence of different concentrations of anthranilate. […] The inhibition constant (IC50, 50% inhibitory concentration) of eIGPs-6His was measured to be about 0.70 mM.

ScTrpC = target: T5, ScTrpC (Saccharomyces cerevisiae, UniProt P00937); experiment: Effect of anthranilate on IGPs activity of TrpC; type: biochemical; details: FIG. 7
T5 sequence (P00937 1-484): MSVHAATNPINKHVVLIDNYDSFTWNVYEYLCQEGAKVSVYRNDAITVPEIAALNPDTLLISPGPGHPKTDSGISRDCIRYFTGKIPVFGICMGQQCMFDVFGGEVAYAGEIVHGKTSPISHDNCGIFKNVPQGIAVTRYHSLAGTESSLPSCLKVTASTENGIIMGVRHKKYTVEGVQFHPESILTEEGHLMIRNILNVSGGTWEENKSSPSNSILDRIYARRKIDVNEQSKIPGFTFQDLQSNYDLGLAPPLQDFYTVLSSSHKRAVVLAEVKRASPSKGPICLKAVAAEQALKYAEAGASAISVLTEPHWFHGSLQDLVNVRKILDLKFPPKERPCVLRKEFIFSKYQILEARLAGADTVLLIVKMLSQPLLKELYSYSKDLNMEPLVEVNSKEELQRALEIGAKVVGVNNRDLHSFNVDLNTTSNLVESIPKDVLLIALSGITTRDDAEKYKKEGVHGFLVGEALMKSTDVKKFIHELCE

eIGPs mutant S60A = target: T6, eIGPs mutant S60A (Escherichia coli, UniProt P00909, S61A); experiment: IGPs enzyme assay, inhibition by anthranilate; type: biochemical
T6 construct: made in house; host or cells: E. coli BL21
T6 sequence (P00909 2-260 S61A): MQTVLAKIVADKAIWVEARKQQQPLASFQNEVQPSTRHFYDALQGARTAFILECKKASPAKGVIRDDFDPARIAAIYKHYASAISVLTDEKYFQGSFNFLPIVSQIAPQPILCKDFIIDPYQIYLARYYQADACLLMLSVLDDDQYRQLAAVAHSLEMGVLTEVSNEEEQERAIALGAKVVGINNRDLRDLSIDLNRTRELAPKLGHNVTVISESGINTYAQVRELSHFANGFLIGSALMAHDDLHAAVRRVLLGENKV
Experimental: as §1
(§2) […]. Therefore, the effect of anthranilate on the activity of this mutants was not investigated. […] […].

eIGPs mutant S60G = target: T7, eIGPs mutant S60G (Escherichia coli, UniProt P00909, S61G); experiment: IGPs enzyme assay, inhibition by anthranilate; type: biochemical; details: read-out: activity of mutant S60G inhibited
T7 construct: made in house; host or cells: E. coli BL21
T7 sequence (P00909 2-260 S61G): as the sequence (P00909 2-260 S61A) above, with A60G counted along it
Experimental: as §1, §2

[2] = Michaelis constants of 6His-TrpC without and with anthranilate; type: biochemical, Escherichia coli
Experimental: as §1
To identify the mechanism of the inhibition of eIGPs by anthranilate, the effect of the inhibitor on the Michaelis constants of eIGPs was investigated with 6His-TrpC. Various concentration of CdRP (from 2.6 to 260 μM) were used when the reactions carried out in the absence of anthranilate and in the presence of 0.5 mM anthranilate, respectively. […] It is somewhat consistent with the fact that anthranilate has a distinguished binding site from the catalytic site based on the crystal structure analysis.

[3] = Specific activities and kinetic constants of TrpC WT and TrpC QVFQ; type: biochemical, Escherichia coli
Experimental: as §1

[4] = SDS-PAGE analysis, data not shown
[5] = Enzyme assay of wild-type and mutant eIGPs (specific activity); type: biochemical, Escherichia coli; details: for anthranilate resistance / sensitivity compared with wild-type eIGPs (in words): FIG. 3; for activity relative to the wild-type enzyme: 18 μM CdRP, absence of anthranilate; for specific activity compared with wild type in the presence of anthranilate: more than 0.1 mM anthranilate, 180 μM CdRP
Experimental: as §1, §2

[6] = two-domain form, reference [31]; cited from earlier work

For `Nc1ccccc1C(=O)O` [anthranilate, 2-Aminobenzoic acid], which “regulation of ScIGPs activity by anthranilate” value [1] is on record?
Its value is “no activation was observed”.

And the IC50 (6His-eIGPs)?
Its IC50 is about 400 µM.

What about the “regulation of AgTrpC activity by anthranilate” value (AgTrpC) of the same molecule?
Its value is “activated”.

And the mechanism of inhibition (6His-TrpC; Lineweaver-Burk, CdRP 2.6 to 260 μM, 0 vs 0.5 mM anthranilate)?
Its mechanism of inhibition is “noncompetitive inhibitor”.

And the IC50 (6His-TrpC; eIGPs-PRAi two-domain form)?
The IC50 was about 1300 µM.

And the IC50 (eIGPs-6His; 180 μM CdRP, 30° C., pH 7.5, read-out: inhibition constant (IC50, 50% inhibitory concentration) of eIGPs-6His)?
Its IC50 is about 700 µM.

And the inhibition at 500 µM (eIGPs-6His; 0.5 mM anthranilate, read-out: activity of eIGPs inhibited)?
The inhibition at 500 µM was 46%.

And the “regulation of ScTrpC activity by anthranilate” value (ScTrpC)?
The value was “activated”.

And the IC50 (eIGPs mutant S60A)?
The IC50 was about 2000 µM.

What about the inhibition at 2000 µM (eIGPs mutant S60A; read-out: activity of mutant S60A inhibited) of the same molecule?
Its inhibition at 2000 µM is 46%.

What about the inhibition at 2000 µM (eIGPs mutant S60G) of the same molecule?
The inhibition at 2000 µM was 20%.

B1: 6His-TrpC: E. coli TrpC, two-domain form, 6His-tag at the N-terminus (protein, UniProt P00909 1-453, looked up)
Tryptophan biosynthesis …: MMQTVLAKIVADKAIWVEARKQQQPLASFQNEVQPSTRHFYDALQGARTAFILECKKASPSKGVIRDDFDPARIAAIYKHYASAISVLTDEKYFQGSFNFLPIVSQIAPQPILCKDFIIDPYQIYLARYYQADACLLMLSVLDDDQYRQLAAVAHSLEMGVLTEVSNEEEQERAIALGAKVVGINNRDLRDLSIDLNRTRELAPKLGHNVTVISESGINTYAQVRELSHFANGFLIGSALMAHDDLHAAVRRVLLGENKVCGLTRGQDAKAAYDAGAIYGGLIFVATSPRCVNVEQAQEVMAAAPLQYVGVFRNHDIADVVDKAKVLSLAAVQLHGNEEQLYIDTLREALPAHVAIWKALSVGETLPAREFQHVDKYVLDNGQGGSGQRFDWSLLNGQSLGNVLLAGGLGADNCVEAAQTGCAGLDFNSAVESQPGIKDARLLASVFQTLRAY
modifications: N-terminal His6 tag
notes: E. coli TrpC, two-domain form, 6His-tag at the N-terminus
Which Km ([2]; 0.5 mM anthranilate) does the source give for B1 here?
The Km was 1.53 µM.

What about the Vmax ([2]; 0.5 mM anthranilate) of the same molecule?
Its Vmax is 2.63 µmol/min/mg.

And the Km ([2]; no anthranilate)?
The Km was 1.57 µM.

And the Vmax ([2]; no anthranilate)?
The Vmax was 3.64 µmol/min/mg.

B2: QVFQ: E. coli TrpC variant S58Q, P59V, S60F, K61Q, SEQ ID NO: 30 (protein)
chain: MQTVLAKIVADKAIWVEARKQQQPLASFQNEVQPSTRHFYDALQGARTAFILECKKAQVFQGVIRDDFDPARIAAIYKHYASAISVLTDEKYFQGSFNFLPIVSQIAPQPILCKDFIIDPYQIYLARYYQADACLLMLSVLDDDQYRQLAAVAHSLEMGVLTEVSNEEEQERAIALGAKVVGINNRDLRDLSIDLNRTRELAPKLGHNVTVISESGINTYAQVRELSHFANGFLIGSALMAHDDLHAAVRRVLLGENKVCGLTRGQDAKAAYDAGAIYGGLIFVATSPRCVNVEQAQEVMAAAPLQYVGVFRNHDIADVVDKAKVLSLAAVQLHGNEEQLYIDTLREALPAHVAIWKALSVGETLPAREFQHVDKYVLDNGQGGSGQRFDWSLLNGQSLGNVLLAGGLGADNCVEAAQTGCAGLDFNSAVESQPGIKDARLLASVFQTLRAY
modifications: EcTrpC S58Q P59V S60F K61Q
With B2 as the molecule, how does the Specific activities ([3]; Anthranilate 0 mM) read?
The Specific activities was 1.886 ± 0.067 µmol/min/mg.

And the Specific activities ([3]; Anthranilate 0.5 mM)?
Its Specific activities is 1.124 ± 0.074 µmol/min/mg.

What about the Specific activities ([3]; Anthranilate 1 mM) of the same molecule?
Its Specific activities is 1.152 ± 0.089 µmol/min/mg.

And the Specific activities ([3]; Anthranilate 2 mM)?
The Specific activities was 0.906 ± 0.022 µmol/min/mg.

And the Specific activities ([3]; Anthranilate 3 mM)?
Its Specific activities is 0.866 ± 0.016 µmol/min/mg.

And the Km ([3]; apparent, substrate CdRP)?
Its Km is 6.14 ± 0.04 µM.

And the kcat ([3]; apparent, substrate CdRP)?
Its kcat is 0.027 ± 0.001 s⁻¹.

And the “inhibition by anthranilate compared to wildtype TrpC (in words)” value ([3]; increasing anthranilate concentrations, FIG. 12)?
Its value is “significantly less inhibited by anthranilate”.

B3: I8V (protein)
chain: B2 chain with I8V, Q58S, V59P, F60S, Q61K
modifications: EcTrpC I8V
For B3, which “solubility of the expressed protein (in words)” value [4] is on record?
Its value is “poorer solubility than the wild-type eIGPs”.

And the “Specific activity in the absence of anthranilate” value (“Specific activity in the absence” below) ([5]; CdRP 180 μM)?
The value was 0.90 ± 0.03 µmol/min/mg.

And the “anthranilate resistance / sensitivity compared with wild-type eIGPs (in words)” value [5]?
Its value is “slightly increased”.

B4: S60A: E. coli IGPs mutant S60A, SEQ ID NO: 3 (protein)
chain: B2 chain with Q58S, V59P, F60A, Q61K
modifications: EcTrpC S60A
Which “efficiency (Kcat/Km) relative to the wild-type enzyme” value [6] does the source give for B4 here?
The value was “about 30%”.

And the “activity relative to the wild-type enzyme” value [5]?
The value was 74%.

What about the “Specific activity in the absence” value ([5]; CdRP 18 μM) of the same molecule?
Its value is 1.60 ± 0.03 µmol/min/mg.

And the “Specific activity in the absence” value ([5]; CdRP 60 μM)?
The value was 2.05 ± 0.06 µmol/min/mg.

What about the “Specific activity in the absence” value ([5]; CdRP 180 μM) of the same molecule?
The value was 2.13 ± 0.01 µmol/min/mg.

And the “anthranilate resistance / sensitivity compared with wild-type eIGPs (in words)” value [5]?
The value was “significantly improved”.

What about the “specific activity compared with wild type in the presence of anthranilate” value [5] of the same molecule?
The value was “higher than that of the wild type”.

B5: S60G (protein)
chain: B2 chain with Q58S, V59P, F60G, Q61K
modifications: EcTrpC S60G
Which results are given for B5?
activity relative to the wild-type enzyme [5]: 52%; Specific activity in the absence of anthranilate ([5]; CdRP 18 μM): 1.13 ± 0.02 µmol/min/mg; Specific activity in the absence of anthranilate ([5]; CdRP 60 μM): 1.75 ± 0.03 µmol/min/mg; Specific activity in the absence of anthranilate ([5]; CdRP 180 μM): 1.92 ± 0.02 µmol/min/mg; anthranilate resistance / sensitivity compared with wild-type eIGPs (in words) [5]: significantly improved; Km ranking among WT, S60A, S60G ([5]; from rates of increased absorbance): largest Km; specific activity compared with wild type in the presence of anthranilate [5]: higher than that of the wild type

B6: L188F (protein)
chain: B2 chain with Q58S, V59P, F60S, Q61K, L188F
modifications: EcTrpC L188F
For B6, which “Specific activity in the absence” value ([5]; CdRP 180 μM) is on record?
The value was 1.04 ± 0.02 µmol/min/mg.

What about the “anthranilate resistance / sensitivity compared with wild-type eIGPs (in words)” value [5] of the same molecule?
The value was “slightly increased”.
